Publication PMC8298264, “Function of cofactor Akirin2 in the regulation of gene expression in model human neutrophil-like HL60 cells” (Bioscience Reports, 2021)

These molecules were tested on human HL60 cells (assay: SWATH-MS proteomics, differential protein representation, akirin2 KO vs WT HL60 cells). Settings: SWATH-MS, akirin2 KO vs WT HL60 cells; over-represented in KO.
Assay type: cell-based
How it was run: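 Read-out is label-free SWATH-MS protein area, globally normalized to total detected-protein area, with identifications held at 1% FDR against a library from information-dependent acquisition.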

Molecule	Fold Change	Log (Fold Change)
Peroxiredoxin-2 (protein, UniProt P32119 2-198, looked up) Peroxiredoxin-2: ASGNARIGKPAPDFKATAVVDGAFKEVKLSDYKGKYVVLFFYPLDFTFVCPTEIIAFSNRAEDFRKLGCEVLGVSVDSQFTHLAWINTPRKEGGLGPLNIPLLADVTRRLSEDYGVLKTDEGIAYRGLFIIDGKGVLRQITVNDLPVGRSVDEALRLVQAFQYTDEHGEVCPAGWKPGSDTIKPNVDDSKEYFSKHN	2.923	0.4659

Same assay, conditions: akirin2 KO vs WT HL60 cells; sheet "Over-represented in KO"

Molecule	Fold Change	Log (Fold Change)
sp¦Q15424¦SAFB1_HUMAN (protein, UniProt Q15424 2-915, looked up) Scaffold attachment factor B1: AETLSGLGDSGAAGAAALSSASSETGTRRLSDLRVIDLRAELRKRNVDSSGNKSVLMERLKKAIEDEGGNPDEIEITSEGNKKTSKRSSKGRKPEEEGVEDNGLEENSGDGQEDVETSLENLQDIDIMDISVLDEAEIDNGSVADCVEDDDADNLQESLSDSRELVEGEMKELPEQLQEHAIEDKETINNLDTSSSDFTILQEIEEPSLEPENEKILDILGETCKSEPVKEESSELEQPFAQDTSSVGPDRKLAEEEDLFDSAHPEEGDLDLASESTAHAQSSKADSLLAVVKREPAEQPGDGERTDCEPVGLEPAVEQSSAASELAEASSEELAEAPTEAPSPEARDSKEDGRKFDFDACNEVPPAPKESSTSEGADQKMSSPEDDSDTKRLSKEEKGRSSCGRNFWVSGLSSTTRATDLKNLFSKYGKVVGAKVVTNARSPGARCYGFVTMSTAEEATKCINHLHKTELHGKMISVEKAKNEPVGKKTSDKRDSDGKKEKSSNSDRSTNLKRDDKCDRKDDAKKGDDGSGEKSKDQDDQKPGPSERSRATKSGSRGTERTVVMDKSKGVPVISVKTSGSKERASKSQDRKSASREKRSVVSFDKVKEPRKSRDSESHSRVRERSEREQRMQAQWEREERERLEIARERLAFQRQRLERERMERERLERERMHVEHERRREQERIHREREELRRQQELRYEQERRPAVRRPYDLDRRDDAYWPEAKRAALDERYHSDFNRQDRFHDFDHRDRGRYPDHSVDRREGSRSMMGEREGQHYPERHGGPERHGRDSRDGWGGYGSDKRMSEGRGLPPPPRRDWGDHGRREDDRSWQGTADGGMMDRDHKRWQGGERSMSGHSGPGHMMNRGGMSGRGSFAPGGASRGHPIPHGGMQGGFGGQSRGSRPSDARFTRRY	1.249	0.09669
sp¦P25788¦PSA3_HUMAN (protein, UniProt P25788 2-255, looked up) Proteasome subunit alpha …: SSIGTGYDLSASTFSPDGRVFQVEYAMKAVENSSTAIGIRCKDGVVFGVEKLVLSKLYEEGSNKRLFNVDRHVGMAVAGLLADARSLADIAREEASNFRSNFGYNIPLKHLADRVAMYVHAYTLYSAVRPFGCSFMLGSYSVNDGAQLYMIDPSGVSYGYWGCAIGKARQAAKTEIEKLQMKEMTCRDIVKEVAKIIYIVHDEVKDKAFELELSWVGELTNGRHEIVPKDIREEAEKYAKESLKEEDESDDDNM	1.227	0.08878
sp¦P10620¦MGST1_HUMAN (protein, UniProt P10620 1-155, looked up) Microsomal glutathione …: MVDLTQVMDDEVFMAFASYATIILSKMMLMSTATAFYRLTRKVFANPEDCVAFGKGENAKKYLRTDDRVERVRRAHLNDLENIIPFLGIGLLYSLSGPDPSTAILHFRLFVGARIYHTIAYLTPLPQPNRALSFFVGYGVTLSMAYRLLKSKLYL	1.217	0.08527
sp¦O75083¦WDR1_HUMAN (protein, UniProt O75083 1-606, looked up) WD repeat-containing protein 1: MPYEIKKVFASLPQVERGVSKIIGGDPKGNNFLYTNGKCVILRNIDNPALADIYTEHAHQVVVAKYAPSGFYIASGDVSGKLRIWDTTQKEHLLKYEYQPFAGKIKDIAWTEDSKRIAVVGEGREKFGAVFLWDSGSSVGEITGHNKVINSVDIKQSRPYRLATGSDDNCAAFFEGPPFKFKFTIGDHSRFVNCVRFSPDGNRFATASADGQIYIYDGKTGEKVCALGGSKAHDGGIYAISWSPDSTHLLSASGDKTSKIWDVSVNSVVSTFPMGSTVLDQQLGCLWQKDHLLSVSLSGYINYLDRNNPSKPLHVIKGHSKSIQCLTVHKNGGKSYIYSGSHDGHINYWDSETGENDSFAGKGHTNQVSRMTVDESGQLISCSMDDTVRYTSLMLRDYSGQGVVKLDVQPKCVAVGPGGYAVVVCIGQIVLLKDQRKCFSIDNPGYEPEVVAVHPGGDTVAIGGVDGNVRLYSILGTTLKDEGKLLEAKGPVTDVAYSHDGAFLAVCDASKVVTVFSVADGYSENNVFYGHHAKIVCLAWSPDNEHFASGGMDMMVYVWTLSDPETRVKIQDAHRLHHVSSLAWLDEHTLVTTSHDASVKEWTITY	1.216	0.0848
sp¦O60925¦PFD1_HUMAN (protein, UniProt O60925 2-122, looked up) Prefoldin subunit 1: AAPVDLELKKAFTELQAKVIDTQQKVKLADIQIEQLNRTKKHAHLTDTEIMTLVDETNMYEGVGRMFILQSKEAIHSQLLEKQKIAEEKIKELEQKKSYLERSVKEAEDNIREMLMARRAQ	1.213	0.08377
sp¦P28074¦PSB5_HUMAN (protein, UniProt P28074 60-263, looked up) Proteasome subunit beta type-5: TTTLAFKFRHGVIVAADSRATAGAYIASQTVKKVIEINPYLLGTMAGGAADCSFWERLLARQCRIYELRNKERISVAAASKLLANMVYQYKGMGLSMGTMICGWDKRGPGLYYVDSEGNRISGATFSVGSGSVYAYGVMDRGYSYDLEVEQAYDLARRAIYQATYRDAYSGGAVNLYHVREDGWIRVSSDNVADLHEKYSGSTP	1.209	0.08243
sp¦P55145¦MANF_HUMAN (protein, UniProt P55145 25-182, looked up) Mesencephalic …: LRPGDCEVCISYLGRFYQDLKDRDVTFSPATIENELIKFCREARGKENRLCYYIGATDDAATKIINEVSKPLAHHIPVEKICEKLKKKDSQICELKYDKQIDLSTVDLKKLRVKELKKILDDWGETCKGCAEKSDYIRKINELMPKYAPKAASARTDL	1.173	0.06948
sp¦P82979¦SARNP_HUMAN (protein, UniProt P82979 2-210, looked up) SAP domain-containing …: ATETVELHKLKLAELKQECLARGLETKGIKQDLIHRLQAYLEEHAEEEANEEDVLGDETEEEETKPIELPVKEEEPPEKTVDVAAEKKVVKITSEIPQTERMQKRAERFNVPVSLESKKAARAARFGISSVPTKGLSSDNKPMVNLDKLKERAQRFGLNVSSISRKSEDDEKLKKRKERFGIVTSSAGTGTTEDTEAKKRKRAERFGIA	1.173	0.06929
sp¦Q9UKX7¦NUP50_HUMAN (protein, UniProt Q9UKX7 1-468, looked up) Nuclear pore complex protein …: MAKRNAEKELTDRNWDQEDEAEEVGTFSMASEEVLKNRAIKKAKRRNVGFESDTGGAFKGFKGLVVPSGGGRFSGFGSGAGGKPLEGLSNGNNITSAPPFASAKAAADPKVAFGSLAANGPTTLVDKVSNPKTNGDSQQPSSSGLASSKACVGNAYHKQLAALNCSVRDWIVKHVNTNPLCDLTPIFKDYEKYLANIEQQHGNSGRNSESESNKVAAETQSPSLFGSTKLQQESTFLFHGNKTEDTPDKKMEVASEKKTDPSSLGATSASFNFGKKVDSSVLGSLSSVPLTGFSFSPGNSSLFGKDTTQSKPVSSPFPTKPLEGQAEGDSGECKGGDEEENDEPPKVVVTEVKEEDAFYSKKCKLFYKKDNEFKEKGIGTLHLKPTANQKTQLLVRADTNLGNILLNVLIPPNMPCTRTGKNNVLIVCVPNPPIDEKNATMPVTMLIRVKTSEDADELHKILLEKKDA	1.164	0.06601
sp¦P20618¦PSB1_HUMAN (protein, UniProt P20618 29-241, looked up) Proteasome subunit beta type-1: RFSPYVFNGGTILAIAGEDFAIVASDTRLSEGFSIHTRDSPKCYKLTDKTVIGCSGFHGDCLTLTKIIEARLKMYKHSNNKAMTTGAIAAMLSTILYSRRFFPYYVYNIIGGLDEEGKGAVYSFDPVGSYQRDSFKAGGSASAMLQPLLDNQVGFKNMQNVEHVPLSLDRAMRLVKDVFISAAERDVYTGDALRICIVTKEGIREETVSLRKD	1.163	0.06574
sp¦P13667¦PDIA4_HUMAN (protein, UniProt P13667 21-645, looked up) Protein disulfide-isomerase A4: VAGAEGPDEDSSNRENAIEDEEEEEEEDDDEEEDDLEVKEENGVLVLNDANFDNFVADKDTVLLEFYAPWCGHCKQFAPEYEKIANILKDKDPPIPVAKIDATSASVLASRFDVSGYPTIKILKKGQAVDYEGSRTQEEIVAKVREVSQPDWTPPPEVTLVLTKENFDEVVNDADIILVEFYAPWCGHCKKLAPEYEKAAKELSKRSPPIPLAKVDATAETDLAKRFDVSGYPTLKIFRKGRPYDYNGPREKYGIVDYMIEQSGPPSKEILTLKQVQEFLKDGDDVIIIGVFKGESDPAYQQYQDAANNLREDYKFHHTFSTEIAKFLKVSQGQLVVMQPEKFQSKYEPRSHMMDVQGSTQDSAIKDFVLKYALPLVGHRKVSNDAKRYTRRPLVVVYYSVDFSFDYRAATQFWRSKVLEVAKDFPEYTFAIADEEDYAGEVKDLGLSESGEDVNAAILDESGKKFAMEPEEFDSDTLREFVTAFKKGKLKPVIKSQPVPKNNKGPVKVVVGKTFDSIVMDPKKDVLIEFYAPWCGHCKQLEPVYNSLAKKYKGQKGLVIAKMDATANDVPSDRYKVEGFPTIYFAPSGDKKNPVKFEGGDRDLEHLSKFIEEHATKLSRTKEEL	1.162	0.06526
sp¦Q8WU90¦ZC3HF_HUMAN (protein, UniProt Q8WU90 1-426, looked up) Zinc finger CCCH …: MPPKKQAQAGGSKKAEQKKKEKIIEDKTFGLKNKKGAKQQKFIKAVTHQVKFGQQNPRQVAQSEAEKKLKKDDKKKELQELNELFKPVVAAQKISKGADPKSVVCAFFKQGQCTKGDKCKFSHDLTLERKCEKRSVYIDARDEELEKDTMDNWDEKKLEEVVNKKHGEAEKKKPKTQIVCKHFLEAIENNKYGWFWVCPGGGDICMYRHALPPGFVLKKDKKKEEKEDEISLEDLIERERSALGPNVTKITLESFLAWKKRKRQEKIDKLEQDMERRKADFKAGKALVISGREVFEFRPELVNDDDEEADDTRYTQGTGGDEVDDSVSVNDIDLSLYIPRDVDETGITVASLERFSTYTSDKDENKLSEASGGRAENGERSDLEEDNEREGTENGAIDAVPVDENLFTGEDLDELEEELNTLDLEE	1.158	0.06384
sp¦P46926¦GNPI1_HUMAN (protein, UniProt P46926 1-289, looked up) Glucosamine-6-phosphate …: MKLIILEHYSQASEWAAKYIRNRIIQFNPGPEKYFTLGLPTGSTPLGCYKKLIEYYKNGDLSFKYVKTFNMDEYVGLPRDHPESYHSFMWNNFFKHIDIHPENTHILDGNAVDLQAECDAFEEKIKAAGGIELFVGGIGPDGHIAFNEPGSSLVSRTRVKTLAMDTILANARFFDGELTKVPTMALTVGVGTVMDAREVMILITGAHKAFALYKAIEEGVNHMWTVSAFQQHPRTVFVCDEDATLELKVKTVKYFKGLMLVHNKLVDPLYSIKEKETEKSQSSKKPYSD	1.154	0.06211
